Data published in patent publication US20230193225A1, “NEW USES OF A MUTATED LACTONASE, AND COMPOSITIONS” (FONDATION MEDITERRANEE INFECTION, priority 2019, published 2023).
Substitutions are numbered along the chain they refer to. Numbers in names are those of the source. Entries after “also recorded” stand apart in the source; their conditions may differ.

Assays:
[1] = tested on: Pseudomonas aeruginosa UCBPP-PA14 biofilm; test: MBEC (Minimal Biofilm Eradication Concentration) assay; assay type: cell-based; conditions: for MBEC: P. aeruginosa UCBPP-PA14 biofilm; for factor of decrease of the concentration required to eliminate the biofilms in presence of SsoPox-W263I: P. aeruginosa biofilms, with vs without SsoPox-W263I
Description: (§1) The doses of antimicrobial agents required to eliminate bacterial biofilms are determined using the “MBEC (Minimal Biofilm Eradication Concentration) Assay TM” technique developed by Innovotech (Alberta, Canada) according to the supplier's data.
(§2) Bacterial biofilms are formed by bacterial growth in a medium and conditions adapted to the bacteria studied in the presence or absence of the lactonase SsoPox-W263I of sequence SEQ ID NO: 2.
(§3) Bacteria are pre-cultured for 6 hours in oxygenated flasks under the conditions indicated in Table 1 and then MBEC plates are plated by diluting the pre-culture to 1:1000 in the presence or absence of SsoPox-W263I lactonase at 0.5 mg/mL. After 24 hours of growth, the bacterial biofilms formed on the spikes of the MBEC plate cover are rinsed by immersion for 5 minutes in a buffer solution (Table 1). The biofilms are then immersed in a buffer solution containing antimicrobial agents (disinfectants, bactericidal or bacteriostatic antibiotics, bacteriophages, biocides) for a period of time representative of the mechanism of action of the antimicrobial agent studied (1.5 h for antiseptics, 3 h for antibiotics, 4 h for phages). After immersion in the antimicrobial agents, the bacterial biofilms were rinsed for 5 minutes in a buffer solution and then incubated for 1 hour in a nutrient medium adapted to the bacteria studied and containing detergents to detach the biofilms (Table 1). After 1 hour of incubation, the bacteria detached from the biofilm and thus present in the wells of the MBEC plate are serially diluted and plated on suitable nutrient agar to perform bacterial counts and determine the number of bacteria that survived the combined treatment of the mutated SsoPox-W263I enzyme and the antimicrobial agent (FIG. 1). The MBEC is the minimum concentration of antimicrobial agent to eradicate the bacteria in the biofilm.

P. aeruginosa biofilms = test: Enumeration of bacteria recovered from biofilms after antiseptic or bleach treatment; assay type: cell-based, Pseudomonas aeruginosa; conditions: for bacteria recovered from the biofilm: 10 mM H2O2 for 1.5 hours
Description: as §2, §3

[2] = tested on: Pseudomonas aeruginosa UCBPP-PA14 biofilm; test: MBEC (Minimal Biofilm Eradication Concentration) assay; assay type: cell-based; conditions: control sample with inactive variant SsoPox-5A8
[3] = tested on: Chromobacterium violaceum ATCC-12472 biofilm; test: as above; assay type: cell-based; conditions: C. violaceum ATCC-12472 biofilm
Description: as §1, §2, §3

[4] = tested on: Pseudomonas aeruginosa PA14; test: Susceptibility to Intesti phage cocktail; assay type: cell-based; conditions: enzyme 0.5 mg/mL, phage cocktail 0 to 50% (vol/vol)
Description: FIG. 2: Increased susceptibility of Pseudomonas aeruginosa PA14 to Intesti phage cocktail.
as §3
The Intesti phage cocktail consists of a mixture of sterile filtrates of phages directed against Shigella flexneri (serovariants 1, 2, 3, 4, 6), Shigellasi, Proteus vulgaris, Proteus mirabilis, Enterococcus, Staphylococcus, Pseudomonas aeruginosa and excipients such as 8-hydroxyquinoline sulfate monohydrate at 0.0001 g/ml (estimated content) and is marketed by Intesti-bacteriophage, Microgen, Russia

[5] = tested on: CRISPR-Cas system genes cas1, cas3, csy1, csy2, csy3 and csy4 in P. aeruginosa PA14 and clinical isolates; test: Gene expression of the CRISPR-Cas system (RT-PCR); assay type: cell-based, Pseudomonas aeruginosa; conditions: vs inactive SsoPox-5A8
Description: (§4) FIG. 3: Expression changes of the CRISPR-Cas system. Expression of the CRISPR-Cas system genes casl, cas3, csy1, csy2, csy3 and csy4 was measured for the P. aeruginosa model strain PA14 as well as for clinical isolates from diabetic foot infections (All, B10, C5, C11, D10 and F3) and for the marine bacterium Chromobacterium violaceum CV12472. […] Error bars represent variations for 2 technical duplicates of 2 biological replicates. *p-values<0.05, *p-values<0.01, ***p-values<0.001 by Student's t-test.
(§5) After 16 hours of culture (stationary phase), the bacteria were recovered by centrifugation.
RNAs were extracted and purified with the PureLink® RNA mini kit (ThermoFisher) according to the supplier's recommendations and then treated with the TURBO DNA-free™ kit (ThermoFisher) to remove genomic DNA contamination. Samples were checked for quality by 1.5% agarose gel migration and the amount of nucleic acid was measured with a NanoDrop 2000 spectrophotometer (Thermo Scientific) at OD260 nm. Complementary DNAs (cDNAs) were synthesised using the TaqMan® Reverse Transcription Reagents kit (ThermoFisher) according to the manufacturer's recommendations. RT-PCR was then performed using the LuminoCt® SYBR® Green qPCR ReadyMix™ kit and a CFX thermocycler (Bio-Rad) and specific primer pairs. PCR amplification was performed with the following method: Denaturation for 5 minutes at 94° C., followed by 29 cycles of [1 minute at 94° C., 1 minute at 55° C., 30 seconds at 72° C.] for amplification, then a final elongation step for 7 minutes at 72° C. Sample fluorescence is measured at the end of each cycle and denaturation curves were analysed with CFX Manager™ software (Bio-Rad). Gene expression was normalised by expression of a 5S RNA housekeeping gene.

[6] = tested on: CRISPR-Cas system genes in Chromobacterium violaceum CV12472; test: Gene expression of the CRISPR-Cas system (RT-PCR); assay type: cell-based; conditions: C. violaceum CV12472; vs inactive SsoPox-5A8
Description: as §4, §5
RNAs were extracted and purified with the PureLink® RNA mini kit (ThermoFisher) according to the supplier's recommendations and then treated with the TURBO DNA-free™ kit (ThermoFisher) to remove genomic DNA contamination. Samples were checked for quality by 1.5% agarose gel migration and the amount of nucleic acid was measured with a NanoDrop 2000 spectrophotometer (Thermo Scientific) at OD260 nm. […] RT-PCR was then performed using the LuminoCt® SYBR® Green qPCR ReadyMix™ kit and a CFX thermocycler (Bio-Rad) and specific primer pairs. […] Sample fluorescence is measured at the end of each cycle and denaturation curves were analysed with CFX Manager™ software (Bio-Rad). […]

OO [H2O2]
MBEC ([1]; with SsoPox W263I 0.5 mg/mL): 10 mM
MBEC ([1]; without SsoPox W263I): 100 mM
factor of decrease of the concentration required to eliminate the biofilms in presence of SsoPox-W263I [1]: 10
bacteria recovered from the biofilm (P. aeruginosa biofilms; without the lactonase): 104-105 bacterial cells
antiseptic required to completely eradicate the biofilm [2]: 100 mM

CN(C)S(=O)(=O)N(SC(F)(Cl)Cl)c1ccccc1 [Preventol A4S, Dichlofluanide]
MBEC ([3]; with SsoPox W263I 0.5 mg/mL): >10 µM
MBEC ([3]; without SsoPox W263I): <200 µM

NC[C@H]1O[C@H](O[C@H]2[C@H](O)[C@@H](O[C@H]3O[C@H](CO)[C@@H](O)[C@H](N)[C@H]3O)[C@H](N)C[C@@H]2N)[C@H](N)C[C@@H]1O [Tobramycin]
MBEC ([1]; with SsoPox W263I 0.5 mg/mL): 1 µg/mL
MBEC ([1]; without SsoPox W263I): 10 µg/mL
factor of decrease of the concentration required to eliminate the biofilms in presence of SsoPox-W263I [1]: 10

Gentamicin
MBEC ([1]; with SsoPox W263I 0.5 mg/mL): 2 µg/mL
MBEC ([1]; without SsoPox W263I): 20 µg/mL
factor of decrease of the concentration required to eliminate the biofilms in presence of SsoPox-W263I [1]: 10

B1: SsoPox-W263I: mutated hyperthermophilic lactonase of Sulfolobus solfataricus (SsoPox), tryptophan at position 263 substituted by isoleucine, SEQ ID NO: 2 (protein, listed as Sulfolobus solfataricus)
chain: MRIPLVGKDSIESKDIGFTLIHEHLRVFSEAVRQQWPHLYNEDEEFRNAVNEVKRAMQFGVKTIVDPTVMGLGRDIRFMEKVVKATGINLVAGTGIYIYIDLPFYFLNRSIDEIADLFIHDIKEGIQGTLNKAGFVKIAADEPGITKDVEKVIRAAAIANKETKVPIITHSNAHNNTGLEQQRILTEEGVDPGKILIGHLGDTDNIDYIKKIADKGSFIGLDRYGLDLFLPVDKRNETTLRLIKDGYSDKIMISHDYCCTIDIGTAKPEYKPKLAPRWSITLIFEDTIPFLKRNGVNEEVIATIFKENPKKFFS
decrease in number of bacteria recovered from biofilms (P. aeruginosa biofilms; 0.7 mM NaOCl and SsoPox-W263I, compared to NaOCl alone): 2 Log
bacteria recovered from the biofilm (P. aeruginosa biofilms; biofilm formed with SsoPox-W263I): no bacteria are recovered; also recorded: significantly reduces
number of bacteria recovered from the biofilm, combination vs either agent alone (P. aeruginosa biofilms; sodium hypochlorite in combination with W263I mutated lactonase): significantly reduces
number of bacteria recovered from biofilms (P. aeruginosa biofilms; without NaOCl treatment, with vs without W263I mutated lactonase): same number of bacteria
number of bacteria recovered from biofilms (P. aeruginosa biofilms; without antiseptic treatment, with vs without SsoPox-W263I): same number of bacteria
sensitivity of bacteria to Intesti phage cocktail (number of bacteria counted) [4]: more sensitive
sensitivity of bacteria to Intesti phage cocktail (number of bacteria counted) ([4]; listed as W263I mutated lactonase): satisfactory results
expression of CRISPR-Cas genes ([5]; P. aeruginosa PA14): completely abolished
expression of the csy1-4 genes ([5]; clinical isolate A11): significantly reduced
factor of decrease of CRISPR-Cas gene expression ([5]; clinical isolate B10): 5.5
factor of decrease of CRISPR-Cas gene expression ([5]; clinical isolate C11): 8
expression of the csy1-4 genes ([5]; clinical isolate D10): significantly reduced
factor of increase of CRISPR-Cas gene expression, on average ([5]; clinical isolate F3): 1.7
expression of the cas3 and csy2-4 genes [6]: significantly reduced

B2: SsoPox-5A8: inactive variant of SsoPox (V27G/P67Q/L72C/Y97S/Y99A/T177D/R223L/L226Q/L228M/W263H) (protein, UniProt Q97VT7 1-314, looked up, variant V27G P67Q L72C Y97S Y99A T177D R223L L226Q L228M W263H)
Aryldialkylphosphatase: B1 chain with V27G, P67Q, L72C, Y97S, Y99A, T177D, R223L, L226Q, L228M, I263H
sensitivity of bacteria to Intesti phage cocktail (number of bacteria counted) [4]: little impacted
